Test results: patent CN110964111A (BEIJING DONGFANG BIOTECH CO LTD, dated 2020)
Where a chain is given by its changes, count along the chain named.

B1: BH2-B11 全抗体 (full antibody, human IgG1/kappa) (antibody, V domains shown)
VH: EVQLVESGGGLVQPGGSLRLSCAASGLTWSDSYKHWVRQAPGKGLEWVHWNSTYGGSTYYADSVKGRFTISADTSKNTAYLQMNSLRAEDTAVYYCARRHFASTWDYWGQGTLVTVSS
VL: DIQMTQSPSSLSASVGDRVTITCRASQNIHNSLAWYQQKPGKAPKLLIYGASSLESGVPSRFSGSGSGTDFTLTISSLQPEDFATYYCQQERRVPWTFGQGTKVEIKR
B2: AC9-E3 全抗体 (full antibody, human IgG1/kappa) (antibody, V domains shown)
VH: B1 VH with L27C, Y33W, K34D, H49D, W50Y, N51E, F101W, A102N, S103A, W105F
VL: B1 VL with N28S, S32Y, G50S, S53N, E55P, E91G, R92L, R93H, V94T, W96P
B3: AH10-E3 全抗体 (full antibody, human IgG1/kappa) (antibody, V domains shown)
VH: EVQLVESGGGLVQPGGSLRLSCAASGWTLSDSLQHWVRQAPGKGLEWVGFQSAYGGSTYYADSVKGRFTISADTSKNTAYLQMNSLRAEDTAVYYCARRHYYTAWDYWGQGTLVTVSS
VL: B1 VL with N28S, S32Y, G50S, S53N, E55P, E91G, R92L, R93H, V94T, W96P
B4: BH2-E3 全抗体 (full antibody, human IgG1/kappa) (antibody, V domains shown)
VH: B1 VH
VL: B1 VL with N28S, S32Y, G50S, S53N, E55P, E91G, R92L, R93H, V94T, W96P
B5: AH10-B11 全抗体 (full antibody, human IgG1/kappa) (antibody, V domains shown)
VH: B3 VH
VL: B1 VL
B6: AC9-B11 全抗体 (full antibody, human IgG1/kappa) (antibody, V domains shown)
VH: B1 VH with L27C, Y33W, K34D, H49D, W50Y, N51E, F101W, A102N, S103A, W105F
VL: B1 VL

Molecular target: PD-L1 (UniProt Q9NZQ7 19-238, limits assumed)
Test: cell-based or functional assay

Sequence of PD-L1 (Q9NZQ7 19-238 limits assumed): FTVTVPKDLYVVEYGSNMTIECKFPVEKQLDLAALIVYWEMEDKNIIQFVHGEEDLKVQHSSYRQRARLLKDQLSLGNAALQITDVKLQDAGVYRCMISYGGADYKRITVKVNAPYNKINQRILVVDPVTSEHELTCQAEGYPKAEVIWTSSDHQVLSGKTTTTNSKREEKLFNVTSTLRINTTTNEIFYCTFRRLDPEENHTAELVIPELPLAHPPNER

Row | Binder | EC50, CD4+ T细胞增殖 (混合淋巴细胞反应 MLR, cck8)
1 | B1 | 6.73 ng/mL
2 | B2 | 11.9 ng/mL
3 | B3 | 11.4 ng/mL
4 | B4 | 7.71 ng/mL
5 | B5 | 9.88 ng/mL
6 | B6 | 7.58 ng/mL
